Read-outs that look alike come from different tables or passages of the source.
B1: -1A: N-TIMP-3 mutant with the addition of an N-terminal alanine extension (-1A) (protein)
chain: ACTCSPSHPQDAFCNSDIVIRAKVVGKKLVKEGPFGTLVYTIKQMKMYRGFTKMPHVQYIHTEASESLCGLKLEVNKYQYLLTGRVYDGKMYTGLCNFVERWDQLTLSQRKGLNYRYHLGCN
B2: N-TIMP-3: N-terminal inhibitory domain of TIMP-3 (residues 1 to 121), C-terminally His-tagged, wild-type (protein)
chain: CTCSPSHPQDAFCNSDIVIRAKVVGKKLVKEGPFGTLVYTIKQMKMYRGFTKMPHVQYIHTEASESLCGLKLEVNKYQYLLTGRVYDGKMYTGLCNFVERWDQLTLSQRKGLNYRYHLGCN

Tests used:
[1] = target: catalytic domain of membrane-type 1 MMP (MMP-14(CD)); test: Enzyme inhibition kinetic study, MMP-14; assay type: biochemical; conditions: Table I; enzyme 5 nM; pH 7.5; read-out: Ki(app) MMP-14(CD)
Experimental: FIG. 2. Inhibition of MMP and TACE by N-TIMP-3 and its mutants. A. Inhibition of MMP-14(CD) by wild-type and mutated N-TIMP-3. Open circles, wild-type N-TIMP-3; closed circles, T2G; and open squares, -1A. B. Comparison of the inhibition of TACE by wild-type N-TIMP-3, N-TIMP-1 and TAPI-2. The inhibitors were incubated with 0.5 nM TACE for 3 hr at room temperature, and the residual enzyme activity was measured with 10 μM Substrate III (R&D Systems). The assays were performed at pH 9.0 at a final NaCl concentration of 1 mM. Open circles, N-TIMP-3; closed circles, TAPI-2; and open squares, N-TIMP-1. C. Inhibition of TACE (0.5 nM) by wild-type and mutated N-TIMP-3. Open circles, wild-type inhibitor; closed circles, T2G; and open squares, -1A.
Enzyme inhibition kinetic studies—Inhibition kinetic studies for MMPs and TACE were carried out as described previously (19, 27) with modifications. Purified N-TIMP-3 and mutants were dialyzed against 20 mM Tris-HCl (pH 7.0), 50 mM NaCl containing 20% glycerol, centrifuged at 14,000 rpm for 10 min to remove any precipitate, and protein concentration was re-measured before conducting inhibition assays. […]
where v is the experimentally determined reaction velocity, v0 is the uninhibited activity, E is enzyme concentration, I is inhibitor concentration, K is the apparent inhibition constant (Ki^(app)) and h is the Hill coefficient. […]

[2] = test system: bovine nasal cartilage explants; test: IL-1α-stimulated bovine nasal cartilage explants, GAG release; assay type: cell-based; conditions: 3 days
Experimental: (§1) GAG released into the conditioned media is measured in duplicate using a modification of the dimethylmethylene blue (DMMB) assay as described in Farndale et al.. Shark chondroitin sulfate (0-2.62 μg) is used as standard. The % of total GAG released into the medium is calculated as follows: % of total GAG released=(total GAG in the medium)/(total GAG in the medium+total GAG remaining in the cartilage).
Bovine nasal cartilage explants were stimulated with IL-1α in the presence or absence of N-TIMP-1, TIMP-2, or N-TIMP-3 for 3 days.

[3] = test system: porcine articular cartilage; test: Retinoic acid-stimulated porcine articular cartilage, GAG release; assay type: cell-based
Experimental: Porcine articular cartilage from the metacarpophalangeal joints of 3-9 month old pigs is dissected into small shavings approximately 3 mm long and 2-3 mm wide. After dissection, the cartilage is allowed to rest for 24 h at 37° C. under 5% CO2 in DMEM containing penicillin-streptomycin, amphotericin B, and 5% fetal calf serum. The medium is then replaced with fresh media and the cartilage is rested for a further 24-48 h. Each cartilage piece is then placed in one well of a round bottom 96-well plate with 200 μl of serum-free DMEM with or without 10-100 ng/ml IL-1α or 1 μM retinoic acid and various concentrations of each TIMP-3 mutant. After 3 days, all of the conditioned media are harvested and stored at −20° C. until use.
as §1

[4] = test system: aggrecanase activity in IL-1α- and retinoic acid-stimulated cartilage; test: Aggrecanase-generated aggrecan fragments in cartilage conditioned media, Western analysis; assay type: cell-based; conditions: IL-1α- and retinoic acid-stimulated cartilage
Excerpt: Aggrecan fragments released into the conditioned medium are deglycosylated by digestion with chondroitinase ABC and keratanase and the samples are subjected to SDS/PAGE and Western blotting analysis as described by Little et al.. The primary antibodies used to detect aggrecanase-generated and MMP-generated aggrecan fragments are BC-3 and BC-14, respectively. Antigen-antibody complexes are detected by anti-mouse AP-linked donkey antibody and the AP substrate.
Conditioned media from the above experiments were analyzed by monoclonal antibodies that recognize either the aggrecanase-generated aggrecan neoepitope ARGSV or the MMP-generated aggrecan neoepitope FFGVG. In concordance with GAG release, there was an increase in the amount of aggrecanase-generated aggrecan fragments released upon treatment with either stimulus, but no MMP-generated fragments were detected.

[5] = test system: porcine articular cartilage; test: IL-1α-stimulated porcine articular cartilage degradation, GAG release (DMMB); assay type: cell-based; conditions: IL-1α 10 ng/ml, 3 days
Experimental: FIG. 7. Inhibition of IL-1a stimulated porcine articular cartilage degradation by N-terminal mutants of N-TIMP-3. Porcine articular cartilage pieces were cultured for three days. Cartilage was stimulated with IL-1α (10 ng/ml) with TIMPs at the concentrations indicated. Glycosaminoglycan (GAG) release in the media was measured by dimethyl methylene blue (DMMB).
Porcine articular cartilage from the metacarpophalangeal joints of 3-9 month old pigs is dissected into small shavings approximately 3 mm long and 2-3 mm wide. After dissection, the cartilage is allowed to rest for 24 h at 37° C. under 5% CO2 in DMEM containing penicillin-streptomycin, amphotericin B, and 5% fetal calf serum. The medium is then replaced with fresh media and the cartilage is rested for a further 24-48 h. […]
as §1, with “Shark chondroitin sulfate (0-2.62 μg) is used as standard.” left out
Porcine articular cartilage pieces were cultured for 3 days. […] Glycosaminoglycan (GAG) release in the media was measured by dimethyl methylene blue (DMMB).

[6] = target: T1, catalytic domain of stromelysin 1 (MMP-3(ΔC)) (Homo sapiens, UniProt P08254); conditions: Table I; data taken from ref. 8; read-out: Ki(app) MMP-3(ΔC); cited from earlier work
T1 construct: the catalytic domains of stromelysin 1 (MMP-3(ΔC)) and membrane-type 1 MMP (MMP-14)

[7] = target: catalytic domain of membrane-type 1 MMP (MMP-14(CD)); conditions: Table I; data taken from ref. 27; read-out: Ki(app) MMP-14(CD); cited from earlier work

T1 sequence (P08254 100-272 limits assumed, stated change not applied): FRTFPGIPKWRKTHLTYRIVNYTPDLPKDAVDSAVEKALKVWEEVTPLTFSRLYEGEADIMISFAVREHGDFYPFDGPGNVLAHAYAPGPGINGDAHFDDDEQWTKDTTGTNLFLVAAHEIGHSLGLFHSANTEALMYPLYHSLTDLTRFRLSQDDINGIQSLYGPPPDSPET

Row | Molecule | Ki [1] [nM] | Inhibition of IL-1α-stimulated GAG release [2] | Inhibition of retinoic acid-stimulated GAG release [3] | Release of aggrecanase-generated aggrecan fragments ([4]; 0.05 μM) | Release of aggrecanase-generated aggrecan fragments ([4]; 0.1 μM) | Inhibition of IL-1α stimulated cartilage degradation (GAG release) [5] | Ki [6] [nM] | Ki [7] [nM]
1 | B1 | 941 ± 206 |  |  |  |  |  |  | 
2 | B2 |  | significantly inhibited | inhibited by N-TIMP-3, but to a lesser extent compared with the IL-1α-stimulated cartilage | partially inhibited | completely blocked | dose dependently inhibited degradation | 67 ± 2.8 | 0.8 ± 0.03

— patent publication US20090318342A1, “Compounds” (IMPERIAL INNOVATIONS LIMITED, priority 2005, published 2009)
